Non-standard residues stand in square brackets, D forms with d. No end group written: not given here. *: point of attachment. Biotin = O=C1N[C@H]2[C@H](CS[C@H]2CCCCC(=O)*)N1; pY = N[C@@H](Cc1ccc(OP(=O)(O)O)cc1)C(=O)O
Molecular target: thrombin (Homo sapiens, UniProt P00734)
Experiment: SPR

- Kd: 0.229 µM
B1: GpIbα269-286ppp (peptide)
chain: Biotin-DEGDTDL[pY]D[pY][pY]PEEDTEG
